In general, Kd refers to the free concentration of one partner at which half of the binding sites on the other are occupied at equilibrium, for simple one-to-one binding. Low readings indicate higher affinity, high ones lower affinity.

First the molecules themselves.
B1: target 1 MT 5'PFS GCA 3'PFS UAA (mixed)
RNA 1: CACCCGUGCAAAAAUGCAGGGGUCUAAAACUGAGCGGAUAACCUCUCUAUGG
RNA 2: GGGAAUGGAUCCACAUCUACGAAUUCGCACCAUAGAGAGGUUAUCCGCUCAUAAAGAUCGGAAGAGCACACGU
B2: target 1 MT 5'PFS CUA 3'PFS AAG (mixed)
RNA 1: CACCCGUGCAAAAAUGCAGGGGUCUAAAACUGAGCGGAUAACCUCUCUAUGG
RNA 2: GGGAAUGGAUCCACAUCUACGAAUUCCUACCAUAGAGAGGUUAUCCGCUCAAAGAGAUCGGAAGAGCACACGU
B3: target 1 MT 5'PFS UGC 3'PFS UCG (mixed)
RNA 1: CACCCGUGCAAAAAUGCAGGGGUCUAAAACUGAGCGGAUAACCUCUCUAUGG
RNA 2: GGGAAUGGAUCCACAUCUACGAAUUCUGCCCAUAGAGAGGUUAUCCGCUCAUCGAGAUCGGAAGAGCACACGU
B4: target 1 MT 5'PFS GUU 3'PFS AGC (mixed)
RNA 1: CACCCGUGCAAAAAUGCAGGGGUCUAAAACUGAGCGGAUAACCUCUCUAUGG
RNA 2: GGGAAUGGAUCCACAUCUACGAAUUCGUUCCAUAGAGAGGUUAUCCGCUCAAGCAGAUCGGAAGAGCACACGU
B5: target 1 MT 5'PFS CUG 3'PFS ACA (mixed)
RNA 1: CACCCGUGCAAAAAUGCAGGGGUCUAAAACUGAGCGGAUAACCUCUCUAUGG
RNA 2: GGGAAUGGAUCCACAUCUACGAAUUCCUGCCAUAGAGAGGUUAUCCGCUCAACAAGAUCGGAAGAGCACACGU
B6: target 1 MT 5'PFS GCA 3'PFS UAC (mixed)
RNA 1: CACCCGUGCAAAAAUGCAGGGGUCUAAAACUGAGCGGAUAACCUCUCUAUGG
RNA 2: GGGAAUGGAUCCACAUCUACGAAUUCGCACCAUAGAGAGGUUAUCCGCUCAUACAGAUCGGAAGAGCACACGU
B7: target 1 MT 5'PFS UUG 3'PFS AUG (mixed)
RNA 1: CACCCGUGCAAAAAUGCAGGGGUCUAAAACUGAGCGGAUAACCUCUCUAUGG
RNA 2: GGGAAUGGAUCCACAUCUACGAAUUCUUGCCAUAGAGAGGUUAUCCGCUCAAUGAGAUCGGAAGAGCACACGU
B8: target 1 MT 5'PFS CUA 3'PFS CGU (mixed)
RNA 1: CACCCGUGCAAAAAUGCAGGGGUCUAAAACUGAGCGGAUAACCUCUCUAUGG
RNA 2: GGGAAUGGAUCCACAUCUACGAAUUCCUACCAUAGAGAGGUUAUCCGCUCACGUAGAUCGGAAGAGCACACGU
B9: target 1 MT 5'PFS GUU 3'PFS AGG (mixed)
RNA 1: CACCCGUGCAAAAAUGCAGGGGUCUAAAACUGAGCGGAUAACCUCUCUAUGG
RNA 2: GGGAAUGGAUCCACAUCUACGAAUUCGUUCCAUAGAGAGGUUAUCCGCUCAAGGAGAUCGGAAGAGCACACGU
B10: target 1 MT 5'PFS CUG 3'PFS ACC (mixed)
RNA 1: CACCCGUGCAAAAAUGCAGGGGUCUAAAACUGAGCGGAUAACCUCUCUAUGG
RNA 2: GGGAAUGGAUCCACAUCUACGAAUUCCUGCCAUAGAGAGGUUAUCCGCUCAACCAGAUCGGAAGAGCACACGU
B11: target 1 MT 5'PFS GUA 3'PFS UAG (mixed)
RNA 1: CACCCGUGCAAAAAUGCAGGGGUCUAAAACUGAGCGGAUAACCUCUCUAUGG
RNA 2: GGGAAUGGAUCCACAUCUACGAAUUCGUACCAUAGAGAGGUUAUCCGCUCAUAGAGAUCGGAAGAGCACACGU
B12: target 1 MT 5'PFS GCA 3'PFS UAG (mixed)
RNA 1: CACCCGUGCAAAAAUGCAGGGGUCUAAAACUGAGCGGAUAACCUCUCUAUGG
RNA 2: GGGAAUGGAUCCACAUCUACGAAUUCGCACCAUAGAGAGGUUAUCCGCUCAUAGAGAUCGGAAGAGCACACGU
B13: target 1 MT 5'PFS CUA 3'PFS UGA (mixed)
RNA 1: CACCCGUGCAAAAAUGCAGGGGUCUAAAACUGAGCGGAUAACCUCUCUAUGG
RNA 2: GGGAAUGGAUCCACAUCUACGAAUUCCUACCAUAGAGAGGUUAUCCGCUCAUGAAGAUCGGAAGAGCACACGU
B14: target 1 MT 5'PFS GAG 3'PFS UGU (mixed)
RNA 1: CACCCGUGCAAAAAUGCAGGGGUCUAAAACUGAGCGGAUAACCUCUCUAUGG
RNA 2: GGGAAUGGAUCCACAUCUACGAAUUCGAGCCAUAGAGAGGUUAUCCGCUCAUGUAGAUCGGAAGAGCACACGU
B15: target 1 insG 3' of 9,insU 3' of 9 (mixed)
RNA 1: CACCCGUGCAAAAAUGCAGGGGUCUAAAACUGAGCGGAUAACCUCUCUAUGG
RNA 2: GGGAAUGGAUCCACAUCUACGAAUUCGUACCAUAGAGAGGUUAGUUCCGCUCACCGAGAUCGGAAGAGCACACGU
B16: target 1 MT 5'PFS UGC 3'PFS UCC (mixed)
RNA 1: CACCCGUGCAAAAAUGCAGGGGUCUAAAACUGAGCGGAUAACCUCUCUAUGG
RNA 2: GGGAAUGGAUCCACAUCUACGAAUUCUGCCCAUAGAGAGGUUAUCCGCUCAUCCAGAUCGGAAGAGCACACGU
B17: target 1 MT 5'PFS UUA 3'PFS CAG (mixed)
RNA 1: CACCCGUGCAAAAAUGCAGGGGUCUAAAACUGAGCGGAUAACCUCUCUAUGG
RNA 2: GGGAAUGGAUCCACAUCUACGAAUUCUUACCAUAGAGAGGUUAUCCGCUCACAGAGAUCGGAAGAGCACACGU
B18: target 1 MT 5'PFS GUA 3'PFS UAC (mixed)
RNA 1: CACCCGUGCAAAAAUGCAGGGGUCUAAAACUGAGCGGAUAACCUCUCUAUGG
RNA 2: GGGAAUGGAUCCACAUCUACGAAUUCGUACCAUAGAGAGGUUAUCCGCUCAUACAGAUCGGAAGAGCACACGU
B19: target 1 MT 5'PFS UUA 3'PFS CAA (mixed)
RNA 1: CACCCGUGCAAAAAUGCAGGGGUCUAAAACUGAGCGGAUAACCUCUCUAUGG
RNA 2: GGGAAUGGAUCCACAUCUACGAAUUCUUACCAUAGAGAGGUUAUCCGCUCACAAAGAUCGGAAGAGCACACGU
B20: target 1 MT 5'PFS UUG 3'PFS AUA (mixed)
RNA 1: CACCCGUGCAAAAAUGCAGGGGUCUAAAACUGAGCGGAUAACCUCUCUAUGG
RNA 2: GGGAAUGGAUCCACAUCUACGAAUUCUUGCCAUAGAGAGGUUAUCCGCUCAAUAAGAUCGGAAGAGCACACGU
B21: target 1 MT 5'PFS UGC 3'PFS UCA (mixed)
RNA 1: CACCCGUGCAAAAAUGCAGGGGUCUAAAACUGAGCGGAUAACCUCUCUAUGG
RNA 2: GGGAAUGGAUCCACAUCUACGAAUUCUGCCCAUAGAGAGGUUAUCCGCUCAUCAAGAUCGGAAGAGCACACGU
B22: target 1 G5C,A16G (mixed)
RNA 1: CACCCGUGCAAAAAUGCAGGGGUCUAAAACUGAGCGGAUAACCUCUCUAUGG
RNA 2: GGGAAUGGAUCCACAUCUACGAAUUCGUACCAUAGGGAGGUUAUCCCCUCACCGAGAUCGGAAGAGCACACGU
B23: target 1 MT 5'PFS UUG 3'PFS AUC (mixed)
RNA 1: CACCCGUGCAAAAAUGCAGGGGUCUAAAACUGAGCGGAUAACCUCUCUAUGG
RNA 2: GGGAAUGGAUCCACAUCUACGAAUUCUUGCCAUAGAGAGGUUAUCCGCUCAAUCAGAUCGGAAGAGCACACGU
B24: target 1 MT 5'PFS GUA 3'PFS UAA (mixed)
RNA 1: CACCCGUGCAAAAAUGCAGGGGUCUAAAACUGAGCGGAUAACCUCUCUAUGG
RNA 2: GGGAAUGGAUCCACAUCUACGAAUUCGUACCAUAGAGAGGUUAUCCGCUCAUAAAGAUCGGAAGAGCACACGU
B25: target 1 MT 5'PFS GUA 3'PFS UAU (mixed)
RNA 1: CACCCGUGCAAAAAUGCAGGGGUCUAAAACUGAGCGGAUAACCUCUCUAUGG
RNA 2: GGGAAUGGAUCCACAUCUACGAAUUCGUACCAUAGAGAGGUUAUCCGCUCAUAUAGAUCGGAAGAGCACACGU
B26: target 1 MT 5'PFS CUG 3'PFS ACG (mixed)
RNA 1: CACCCGUGCAAAAAUGCAGGGGUCUAAAACUGAGCGGAUAACCUCUCUAUGG
RNA 2: GGGAAUGGAUCCACAUCUACGAAUUCCUGCCAUAGAGAGGUUAUCCGCUCAACGAGAUCGGAAGAGCACACGU
B27: target 1 insC 3' of 18,insC 3' of 3 (mixed)
RNA 1: CACCCGUGCAAAAAUGCAGGGGUCUAAAACUGAGCGGAUAACCUCUCUAUGG
RNA 2: GGGAAUGGAUCCACAUCUACGAAUUCGUACCAUACGAGAGGUUAUCCGCUCCACCGAGAUCGGAAGAGCACACGU

The target of this data set is T1, EsCas13d, nuclease-dead (Eubacterium siraeum, UniProt B0MS50, R295A;H300A;R849A;H854A).
T1 sequence: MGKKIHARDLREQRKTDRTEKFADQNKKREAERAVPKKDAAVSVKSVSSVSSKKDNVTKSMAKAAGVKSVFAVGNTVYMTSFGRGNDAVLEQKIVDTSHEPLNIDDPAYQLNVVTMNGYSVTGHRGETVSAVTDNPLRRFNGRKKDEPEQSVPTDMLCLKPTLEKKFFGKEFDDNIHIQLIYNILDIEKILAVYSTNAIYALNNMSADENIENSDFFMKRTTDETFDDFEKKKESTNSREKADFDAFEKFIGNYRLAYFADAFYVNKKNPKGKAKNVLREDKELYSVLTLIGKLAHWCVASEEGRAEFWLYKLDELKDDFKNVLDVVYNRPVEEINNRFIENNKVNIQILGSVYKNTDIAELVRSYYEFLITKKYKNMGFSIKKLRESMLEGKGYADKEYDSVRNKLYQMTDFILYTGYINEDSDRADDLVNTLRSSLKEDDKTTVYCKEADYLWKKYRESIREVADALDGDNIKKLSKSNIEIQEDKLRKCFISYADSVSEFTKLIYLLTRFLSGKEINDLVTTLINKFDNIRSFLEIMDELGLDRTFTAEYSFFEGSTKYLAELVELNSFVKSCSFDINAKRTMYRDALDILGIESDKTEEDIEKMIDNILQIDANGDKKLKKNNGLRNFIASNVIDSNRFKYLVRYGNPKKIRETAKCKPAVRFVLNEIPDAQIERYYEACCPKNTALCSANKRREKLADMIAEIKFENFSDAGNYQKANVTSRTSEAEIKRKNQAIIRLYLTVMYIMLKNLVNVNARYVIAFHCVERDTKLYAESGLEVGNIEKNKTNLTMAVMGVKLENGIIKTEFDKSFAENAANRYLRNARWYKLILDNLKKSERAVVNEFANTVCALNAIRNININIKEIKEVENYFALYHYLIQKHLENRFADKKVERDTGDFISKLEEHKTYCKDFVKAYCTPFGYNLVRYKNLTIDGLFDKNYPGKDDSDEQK
The data set can be described thus: crRNA (strand 1, pre-loaded); Mg2+; 40 mM Tris-HCl pH 7.5, 150 mM NaCl, 6 mM MgCl2, 1 mM DTT, 0.1% Tween-20, 0.2 mg/ml BSA; 25 C; 10 min per concentration, then washed. The settings on record: tags: His6-TwinStrep-SUMO cleaved; N-terminal SNAP kept (SNAP-Surface 488); label: 3' end held by stalled T7 RNA polymerase.
As to B1, the Kd was 19 ± 6.5 nM.
Consider B2, for which the Kd turned out to be 11.4 ± 4 nM.
The result for B3 reads 12.1 ± 2.7 nM; that for B4, 15.6 ± 3.35 nM.
In the case of B5, binding was put at a Kd of 8.25 ± 2.25 nM.
In turn, B6 registered a Kd of 14 ± 2.55 nM.
On to B7, for which the Kd was 83 ± 35 nM. This Kd lies about 5.9-fold higher than the previous one.
Molecule B8 gave a Kd of 17 ± 6 nM.
B9 gave a Kd of 66.5 ± 11.5 nM.
In turn, B10 had a Kd of 6.1 ± 1.45 nM.
The molecule B11 showed a Kd of 13.7 ± 0.9 nM.
B12 returned a Kd of 19.4 ± 4.95 nM.
Molecule B13 had a Kd of 22 ± 7.5 nM.
On to B14, for which the Kd was found to be 64.5 ± 30.5 nM.
In turn, B15 had a Kd of 17.9 ± 0.9 nM. This Kd lies about 3.6-fold lower than the previous one.
B16 registered a Kd of 30 ± 10.5 nM. This Kd is about 1.7-fold higher than that of the molecule before.
Consider B17, for which the Kd was 49.5 ± 20 nM.
Molecule B18 showed a Kd of 13.2 ± 1.25 nM.
As for B19, the Kd was 49 ± 21 nM.
B20 returned a Kd of 58.5 ± 20 nM.
As for B21, the Kd came out at 11.5 ± 5.3 nM.
For the molecule B22, the Kd stood at 65 ± 11 nM.
As to B23, the Kd was 37.5 ± 13 nM. Against the preceding molecule, the Kd is about 1.7-fold lower.
The molecule B24 registered a Kd of 13.8 ± 1.35 nM.
Molecule B25 displayed a Kd of 9.75 ± 0.7 nM.
In the case of B26, binding was characterised by a dissociation constant (Kd) of 6.85 ± 1.6 nM.
As for B27, the Kd came to 32 ± 4 nM. Compared with the last molecule, the Kd is about 4.7-fold higher.

The values above are taken from PMC10786891, “Massively parallel profiling of RNA-targeting CRISPR-Cas13d”.
